Test: yeast display, Sf9 membrane polyspecificity reagent, FACS + sequencing; frameworks hold sequencing errors
In short: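 Genes from sorted yeast were amplified by colony PCR, read by MiSeq 2 × 250 sequencing and filtered on CDR length. These cells carried a synthetic nanobody library in Saccharomyces cerevisiae BJ5465 and were sorted by FACS into low and high (top ~1%) gates on anti-HA and streptavidin fluorescence. Polyreactivity is labelled according to the gate of origin.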

Row | Sequence | polyreactivity (PSR sort gate)
1 | QDQLVESVGCLVQAGGSLRLSCAATGRIFQSYAMGWYRQAPGKERELVAGIRAGGGRTYYADSVKGRFTISRDIAKNTVYVQMNSLKPEDTAVDYCAARFVGSFYAPFDYWGQGTLVTVSS | low polyreactivity
2 | QDQLVESVGGLVQAGGSLRLSCAASGITFRYYTMGWYRQAPGKESELVAVISWSGGSTYYADSVKGRFTISRDNAKNTVYLQMNSLKPEDTAVYYCAAVRRISRYDYWGQGTQVTVSS | high polyreactivity
3 | QDQLVESVGGLVQAGGSLRLSCAASGTISYAGPMGWYRKAPGKEREFVAGIGVCSNTNYADSVKGRYTIIRDNAKNTVYLQMNSLIPEDTAVYYCAVGGYAPLGRPYWGQGTQVTVSS | low polyreactivity
4 | QDQLVESVGGVVQAGGSLRLSGAASGIIFVAYAMGWYRQAPGKERELVASITYSGGSTNYADSVKGRFTISRDNAKNTVYLQLNSLQPEETAVDYCARDRDPVYASVLWDDYGYWGQGTQVTVSS | low polyreactivity
5 | QDQLVETGGGLVQAGGSLRLSCAAYGSIFDLNAMGWYRQAPGKESELVAAITYSSGRTYYADSVKGRFTISRDNAKNTVYLQMNSLKPEDTAVYYCNADLWFHYYRYNYWGQGTQVTVSS | high polyreactivity
6 | QEQLEESGGGLVQAGGRLRLSCAASGSIFTTYTMGWYRQAPGKERELVAAIDYSGDSTYYADSGKGRFTISRDTAKNTVYLQMNSLKPEDTAVYYCNAVSFSAYVPYGYWGQGTQVTVSS | low polyreactivity
7 | QEQLEESGGGLVQAGGRLRLSCAASGSTFGINARGWYRQAPGKEREVVASITRRGGSTYYADSVKGRFTISRDNAKNTVYLQMNSLKPEDTAVYYCNKTYRYGTPLYYYWGQGTQVTVSS | high polyreactivity
8 | QEQLHESGGGLVQAGGSLRLSCAASRTISVTYNMGWYRQATGKEREFVAGNSTGDTTNYADSVKGRFTISRDNAKNTVYLQMNSLKPEDTAVNYCSAHIYRQDHFYYWGQGTQVTVSS | low polyreactivity
9 | QEQLQERGGGLVQAGGSLRLSCAASGNISVTGFMGWYRQAPGKERELVASIGIGGTTYYADSVKGRFSMSRDNAKNTVYLKMNRLKPEDTAVYYCAVRWYDHVSRRGIGYYWGKGTQVTVSS | low polyreactivity
10 | QEQLQESGDGLVQAGGSLRLSSAASGTIFSDYGMGGYRQAPGKERELLAGISDGCNTNYTDSVKGRFTISRDNAHRVSADEQPETGGYRGVLLRGSERWLLFYVYWGQGTQGTVSS | high polyreactivity
11 | QEQLQESGGGLVQAGCSLRLSCAANGYIFSVEDMGRYCLAPGKEREFVATINYDTSTYYADSVKGSFTISRDNAKKTVYLQMNSLKPEDTEVYYCEAYFYAYRSPGYWGQGTQVTVSS | high polyreactivity
12 | QEQLQESGGGLVQAGGSLRLSCAAIGSNIPTIYMGWYRHAPGKEREFVAAIGKGCSTYYADSVKGRFTISRDNALKTVYLQMNSLIPEDNAVYYCAFDPYASQDLAYWGQGTLVTVSS | low polyreactivity
13 | QEQLQESGGGLVQAGGSLRLSCAASGIIFDWFFMGWYRQAPGREREFVAAITYGATTNYADSVKGRFTISRDNGKNTVYLQMNSLKPEDSAVYYCAAQHRGVQVTFGEYDYWGQGTQVTVSS | low polyreactivity
14 | QEQLQESGGGQVQAGGSLLLSCAASGNIIRYYYMGWYRQAPGKERELVAAITYGTSTNYADSVKGRFTISRDNATNTEFLQMNSLKPEDTAVYYCAVDVNYGDPIDNWGQGTQVTVSS | high polyreactivity
15 | QEQLQESGGGQVQAGGSLLLSCAASGNIIRYYYMGWYRQAPGKERELVAAITYGTSTNYADSVKGRFTISRDNEKNTVYLQMNSLKPEDSAVYYFAVVVNYGDPLVNWGQGTQVTVSS | high polyreactivity
16 | QEQLQESGGGQVQDGGSLRMSCAASGSISYASGLCWYSQEQGKEREFVASIDPGAITNYADSVKGRFTISHDNAKNTVYLQMNRLKPEDTAVYYCAADGHGGYGYWGQGTQVTVSS | high polyreactivity
17 | QEQLQESGVGQVQAGGSLLLSCAASGNIIRYYYMGWYRQAPGKERELVAAITYGTSTNYADSVKGRFTISRDNAKNSVYLQINSLKPEDTAVYYCAATAYWFYAKYYYWGQGTQVTVSS | high polyreactivity
18 | QEQLVESGGGLVQAGGSLRLSCGASRSIVHYYAMGWYRQAPGKEREFVAAIAWGGDSTYYADSVKGRFTNSRDNANNTVYFQMYSLKPEDTAVYYCAADGPGGIGNGAGYDYWGQGTEVTVSS | low polyreactivity
19 | QFHLVESGGGLFQAGGSLRISCAASGRTLLVNAMGWYRQAPGKERELVAVITRGGSTNYADSVKGRFTISRDNAKNTVYLQMNSLKPEDTAVYYCAKQFSPYRSYGPVVRYDYWGQGTQVTVSS | low polyreactivity
20 | QFQHVESGGCLDQAGRSLRLSSAASGYIFVNAMGWYRQPPGKEMELVAAISSGGSTHYADSVKGRFTISRDNAKYTVYLQMNSLKPEDTAVYYCAAGSFYYGIVQGWYDYWGQGTQVTVSS | high polyreactivity
21 | QFQIVDSVGGLVQAGGSLRLSCAASGRTFSYYSLGWYREATGKERELVASIRKSGASTYYADSVKGRFTISRDNAKNTVYLQMNSLKPEDTAVYYCNTAGWSFYSGRYDYWGQGTQVTVSS | high polyreactivity
22 | QFQLDESGGGLVQAGGSLRLSCAASGLTFSIYAMGWYRKARGKERELVAAITGRGGRTYYADSVKGRFTISRENAKNTVYLQMKSLKPEDTAFYYCADRYRGTDFDYWGQGTQVTVSS | high polyreactivity

Row | Sequence | polyreactivity (PSR sort gate)
23 | QFQLEESGGGLVQAGGSLRLSCAASGFIFTDNGMGRYRQATGKERELVAAINSDGSTYYADSVKGRFTISRDNAKNTVYLQMTSLIPEYTAVYYCAAGSFDRYFWYDYWGQGTQVTVSS | low polyreactivity
24 | QFQLEESGVGLVQAGGSLRLSCAASGFTFNVYAMGWYRQAPGKERELVAAIRWGAGSTYYADSVKGRFTISRDNAKNTVYLQMNSLKPEDTAVYYCAKDSGVWRYDHWGQGTQVTVSS | low polyreactivity
25 | QFQLLESGGGLVQAGGSLRLSCAASGSIFTRNAIGWYRQAPGSERELVAAITSAGSTSYADSVKGRFTISRDNAKNTVYLQMNSQKPEDTAVYYCNTVPGRYRTFDYWGQGTQVTVSS | high polyreactivity
26 | QFQLLESGGGLVQAGGSLRLSCADSGSIYLYYARGWYRQAPGKESELVAAITYSGVSTYDAVSVKGRFTISRDTSNNTVYLQMNSLKPEDNAFYDCARRWNAFGSKGVYWGQGTQVTVSS | high polyreactivity
27 | QFQLLESGGGLVQAGSSLRLSCAASGSTFKYYTMGWYRQAPGKERELVATIRGAGTTYADSVKGRFTISRDNAKHTVYLQMNSLKPEDTAVYYCARLPRGDMDYWGQGTQVTVSS | low polyreactivity
28 | QFQLQESCCGLVQAGGSLRLSCAASGTISYAPQMGWYRQAPGKERELVAGITIGGTTYYADSVKGRFTISRDNAKNTVYLQMNSLSPGDTAVYYCAAHSEQYTPFYYWGQGTQVTVSS | low polyreactivity
29 | QFQLVDSGGALVQAGGSLRLSCAASGFTFYPYAMGWYRQAPGKERELVAAISKRGGSTYYADSVKGRFTISRDHAKNTVYLQMNSLNPEDTAVYYCIAFFNGELYYWGQGTQVTVSS | high polyreactivity
30 | QFQLVESCAGLVQAGGSLRLSCADSGRIFRQYAMGWYIPAPGKERELVASITRNGGSTYYADSVKGRFTISRDNAKNTVYLQMNSQKPEDTAVYYCAKDVKGSYAYDSWGQGTQVTVSS | high polyreactivity
31 | QFQLVESGGGFVQAGGSLRLSCAASGRIFGPYAMGWYRQAPGKERELVAAISFSGSGTYYADSVKGRFTISRDNAKNTVYLQMNSLKPEDTAVYYCAATSRKIVAYDHDYWGQGTQVTVSS | low polyreactivity
32 | QFQLVESGGGFVQAGGSLRLSCAASGYTFQRYAMGWYRQAPGKERELVATISKRGGSTYYADSVKGRFTISRDNAKNTDYLQMNSLKPEDTAVYYCNKLRGLHNGYDYWGQGTQVTVSS | high polyreactivity
33 | QFQLVESGGGLDQAGGSLRLSCAASGFTFQYYAMGWYRQAPGKERELVAAITRGDSTNYADSVKGRFTISRDNAKNTVYLQMNSLKPEDTAVYYCAAGSAPSYWGGWYYERDYWGQGTQVTVSS | low polyreactivity
34 | QFQLVESGGGLDQAGGSLRLSCAASGITFGNYAMGWYRQAPGKERELVAAITGSGGRTNYADSVKGRFTISRDNAKNTVYLQMNSLKPEDTAVYYCNRRQYGRKKQYDYWGQGTQVTVSS | high polyreactivity
35 | QFQLVESGGGLDQAGGSLRLSCAASGLIFSTYSMGLYIQARGKETELVAAISGTGSTYYADSVKGRFTISRDNAKNTVYLQMNSLKPEDTAVYYCNADTYYAGRRYDYWGQGTQVTVSS | low polyreactivity
36 | QFQLVESGGGLDQAGGSLRLSCAASGLIFYNYDMGWYRQAPGKERELVAAITLDGGITYYADSVKGRFTISRDNAKNTVYLQLNSLKPEDTAVYYCNRQYRLYGGYPSNLYEYWGQGTQVTVSS | high polyreactivity
37 | QFQLVESGGGLDQAVGSLRLSCAASGSIFYPNVMGGYREAPGKEREMVAAIRTSGGSTYYADSVQGRFTISRETAKNTVYLQMNSLKPEDTAVYYCAAKRTGNGYPRSGYYRYEYWGHGTQVTVSS | high polyreactivity
38 | QFQLVESGGGLVHAGGSLRLSCAASGITYWAYSMGWYRQARGKERELVAAIRFRGRTYYADSVKGRFTISRDNAKNSVYLQMNSLKAEDTAVYYFDADLSYWDDFEYWGQGNQVTVSS | low polyreactivity
39 | QFQLVESGGGLVQAAGSLRLSCAASGSTFVSNAMGWYRQAPGKDRELVAAITRSGGSTRDADSVKGRLTISRDNAKNTGYLQMNSLKPEDTAVYYCAAPHKYYGLRYYYWGQGTQVTVSS | high polyreactivity
40 | QFQLVESGGGLVQAGCSLRLSCAASGGTFGLYAMGWYRQAPGKERELVAANTWSDSSTYYADSVKGRFTISRDNAKNTVYLQMNSLKPEDNAVYYCAADYGDADTWWPSAEYHSGRDYWGQGTQVTVSS | low polyreactivity
41 | QFQLVESGGGLVQAGCSLRLSCAASGLTVGSNTMGWDRQAPGKERELVAAITSNGGSTYYADSVKGRFTISRDNAKNTVYLQMNSLIPEDTAVYYCAADDRGLISRRGYFYLSYDYWGQGTQVTVSA | low polyreactivity
42 | QFQLVESGGGLVQAGGILRLSCAASGFTFRVNAMGWYRQAPGKERELVASITVSDGRTYYADSVKGRFTISRDNAKNTVYLQMNSLKPEDCAVYYCAADYKGAFTTDWSSEYEYWGQGTQVTVSS | low polyreactivity
43 | QFQLVESGGGLVQAGGSHRLSCAASGRIFSYYAMGWYRQAPGNERELVATITSGGNTNYADSVKGRFTISLDNAKNTVYLQMNSLKPEDTAVYYCKAAERQWYDAYDYWGQGTQVTVSS | low polyreactivity

Reference: the nanobody polyreactivity screen of Harvey et al. (2022)
